Results published in PMC10760138 (bioRxiv, 2024).

Target: full-length, membrane-anchored A/Aichi/02/1968(H3N2)(X-31) HA (Influenza A virus …, UniProt P03437)
Test: flow cytometry on cells

Binder | binding result
S8V1–157 recombinant human IgG1 (antibody, V domains shown) VH: EVQLVQSGAEVKKPGASVKVSCKVSGYRLTALSMHWVRQAPGKGLEWMGGFDPEEDETIYAQNFQGRVTLTEDTSTDTVYMELSSLRSEDTGVYYCATLMGANPFDYWGQGTLIIVSG VL: not shown | binds
S5V2–29 recombinant IgG (antibody, V domains shown) VH: QVQLQESGPGLVKPSETLSLTCTVSGGSVSSNIYYWSWIRQTPGKGLEWLGYFYHSGSSNYNPSLKSRVTISGDMSKNQFSLKLKSVTAADTAIYYCARGGVENLMLVAVIQEMWYFDLWGRGTLVTVSG VL: DIQMTQTPSSLSASVGDRVTITCRASQSIGASLNWYQQKPGEAPKFLIYAASNLQSGVPSRFSGSGSGTDFTLTISSLQPEDFATYYCQQQGTFGQGTKLEIK | binds
HC19 recombinant IgG (antibody, V domains shown) VH: QVQLKESGPGLVAPSQSLSITCTVSGFLLISNGVHWVRQPPGKGLEWLGVIWAGGNTNYNSALMSRVSISKDNSKSQVFLKMKSLQTDDTAMYYCARDFYDYDVFYYAMDYWGQGTSVTVSS VL: QAVVTQESALTTSPGETVTLTCRSSTGAVTTSNYANWVQEKPDHLFTGLIGGTNNRAPGVPARFSGSLIGDKAALTITGAQTEDEAIYFCALWYSNHWVFGGGTKLTVL | binds
